{"source": "patent US20150098933", "proteins": {"B1": {"name": "bovine enterokinase (EC 3.4.21.9) (protein)", "chain": "IVGGSDSREGAWPWVVALYFDDQQVCGASLVSRDWLVSAAHCVYGRNMEPSKWKAVLGLHMASNLTSPQIETRLIDQIVINPHYNKRRKNNDIAMMHLEMKVNYTDYIQPICLPEENQVFPPGRICSIAGWGALIYQGSTADVLQEADVPLLSNEKCQQQMPEYNITENMVCAGYEAGGVDSCQGDSGGPLMCQENNRWLLAGVTSFGYQCALPNRPGVYARVPRFTEWIQSFLH"}}, "key": {"[1]": {"target": "T1, ekLAL (rhLAL containing the FLAG affinity and ek cleavage site, designed to give TLAL-K76), produced in HEK293 cells", "T1 chain": "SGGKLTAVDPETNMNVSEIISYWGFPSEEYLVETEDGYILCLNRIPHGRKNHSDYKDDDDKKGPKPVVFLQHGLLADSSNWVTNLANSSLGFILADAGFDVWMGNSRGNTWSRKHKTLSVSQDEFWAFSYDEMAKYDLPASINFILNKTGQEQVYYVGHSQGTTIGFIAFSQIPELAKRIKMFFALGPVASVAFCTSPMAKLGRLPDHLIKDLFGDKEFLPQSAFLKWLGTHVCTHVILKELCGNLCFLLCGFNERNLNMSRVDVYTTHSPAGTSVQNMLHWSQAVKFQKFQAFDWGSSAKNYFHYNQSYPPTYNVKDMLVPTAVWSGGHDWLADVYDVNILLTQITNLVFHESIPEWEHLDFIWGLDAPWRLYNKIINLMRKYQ"}, "[2]": {"target": "T2, ekLAL (rhLAL containing the FLAG affinity and ek cleavage site, designed to give TLAL-G77), produced in HEK293 cells", "T2 chain": "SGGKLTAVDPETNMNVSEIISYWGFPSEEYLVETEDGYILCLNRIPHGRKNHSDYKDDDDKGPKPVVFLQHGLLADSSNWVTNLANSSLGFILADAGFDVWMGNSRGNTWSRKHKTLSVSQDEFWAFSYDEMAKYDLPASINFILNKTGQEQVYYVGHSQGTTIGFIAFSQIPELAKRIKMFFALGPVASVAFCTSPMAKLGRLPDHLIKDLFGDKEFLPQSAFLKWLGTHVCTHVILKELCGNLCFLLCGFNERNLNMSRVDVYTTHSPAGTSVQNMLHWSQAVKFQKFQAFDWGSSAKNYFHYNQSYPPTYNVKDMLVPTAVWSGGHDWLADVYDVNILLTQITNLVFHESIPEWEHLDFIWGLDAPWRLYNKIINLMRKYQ"}, "[3]": {"target": "T3, rhLAL protein produced from transgenic chicken", "T3 chain": "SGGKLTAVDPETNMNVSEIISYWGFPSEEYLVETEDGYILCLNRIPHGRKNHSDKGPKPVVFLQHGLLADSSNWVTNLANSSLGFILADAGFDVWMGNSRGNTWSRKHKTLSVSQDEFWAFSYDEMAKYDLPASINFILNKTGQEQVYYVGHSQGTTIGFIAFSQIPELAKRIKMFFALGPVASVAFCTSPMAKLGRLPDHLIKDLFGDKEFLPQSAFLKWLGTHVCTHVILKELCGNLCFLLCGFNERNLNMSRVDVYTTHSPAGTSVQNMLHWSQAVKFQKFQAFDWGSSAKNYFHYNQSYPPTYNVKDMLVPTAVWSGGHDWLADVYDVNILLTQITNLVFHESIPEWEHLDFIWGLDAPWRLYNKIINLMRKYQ"}, "[4]": {"target": "T4, full-length rhLAL produced in HEK293 cells", "T4 chain": "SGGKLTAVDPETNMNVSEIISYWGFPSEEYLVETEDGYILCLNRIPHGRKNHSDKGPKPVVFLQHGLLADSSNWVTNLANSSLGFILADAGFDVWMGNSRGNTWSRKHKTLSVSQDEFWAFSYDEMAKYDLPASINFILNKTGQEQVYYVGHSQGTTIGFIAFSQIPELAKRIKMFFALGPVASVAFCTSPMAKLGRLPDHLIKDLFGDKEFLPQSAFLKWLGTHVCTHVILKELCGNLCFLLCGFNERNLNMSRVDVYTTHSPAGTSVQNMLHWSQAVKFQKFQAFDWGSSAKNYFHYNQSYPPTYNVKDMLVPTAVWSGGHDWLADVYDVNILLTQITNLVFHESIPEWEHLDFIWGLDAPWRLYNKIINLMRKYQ"}}, "data": [{"protein": "B1", "values": [{"measurement": "proteolytic cleavage (ek digestion, 6 days at room temperature)", "setting": "[1]", "value": ">70", "unit": "% cleavage into TLAL-K76"}, {"measurement": "proteolytic cleavage (ek digestion, 6 days at room temperature, SDS-PAGE)", "setting": "[2]", "value": "approximately 50% cleavage into TLAL-G77"}, {"measurement": "proteolytic cleavage (molecular weight before and after ek digestion)", "setting": "[3]", "value": "non-specific ek cleavage did not occur during the digestion reaction"}, {"measurement": "proteolytic cleavage (molecular weight before and after ek digestion)", "setting": "[4]", "value": "non-specific ek cleavage did not occur during the digestion reaction"}]}]}
